Target: exenatide (Gila monster) (UniProt P26349)
Sequence (P26349 48-86): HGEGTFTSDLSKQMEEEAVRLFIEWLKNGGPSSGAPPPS

Substance: pepsin (enzyme)
- Residual content of exenatide in percent (%): 0%

Source: patent US20240156915A1
